Assay results reported in US20250019453A1 (SYNTHEKINE, published 2025).
Where a chain is given by its changes, count along the chain named.

T1: mIL2Rg ECD antigen (murine, UniProt P34902 23-263)
T1 construct: The immunogen was the ECD fused to human IgG1 hinge and Fc; also called ECD of IL2Rg (mouse)
T1 sequence: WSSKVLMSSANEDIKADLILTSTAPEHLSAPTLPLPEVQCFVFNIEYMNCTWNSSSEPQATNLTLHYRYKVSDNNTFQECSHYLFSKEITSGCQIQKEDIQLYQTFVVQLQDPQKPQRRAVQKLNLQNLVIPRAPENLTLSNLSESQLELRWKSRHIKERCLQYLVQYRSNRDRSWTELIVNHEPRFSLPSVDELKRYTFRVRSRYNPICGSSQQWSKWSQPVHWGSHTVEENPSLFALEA

T2: hIL2Rb-his (human, UniProt P14784 27-240)
T2 sequence: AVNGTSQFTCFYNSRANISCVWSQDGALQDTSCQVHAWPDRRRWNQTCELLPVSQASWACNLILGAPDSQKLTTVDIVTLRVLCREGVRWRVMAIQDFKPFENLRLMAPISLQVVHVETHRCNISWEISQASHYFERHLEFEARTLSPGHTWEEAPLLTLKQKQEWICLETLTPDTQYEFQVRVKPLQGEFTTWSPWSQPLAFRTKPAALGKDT

B1: mIL2Rg_VHH5 (VHH)
VHH: QVQLQESGGGSVQAGGSLRLSCVASGDVYGRNSMAWFRQAPGKEREGVAVGYSVVTTTYYADSVKGRFTISEDNDKNTVYLEMNSLKPEDTAMYYCAADGNLWRGLRPSEYTYWGQGTQVTVSS
notes: As a his-tagged phage clone periplasmic extract
B2: mIL2Rg_VHH6 (VHH)
VHH: QVQLQESGGGSVQAGGSLRLSCATSGFPYSRYCMGWFRQAPGKEREGVAAIEPDGSTSYADSVKGRFTISQDNAVNTLYLQMNNLKPEDTAMYYCAADERCFYLKDYDLRRPAQYRYWGQGTQVTVSS
notes: as for B1
B3: mIL2Rg_VHH7 (VHH)
VHH: QVQLQESGGGLVQPGGSLRLSCTVSGFTFDESDMGWLRQNPGNECGVVSVITSDDNPYYDDSVKGRFTISEDNAKNMVYLQMNSLKPEDTGVYYCATRSRQPVYSRDYELRPRPLCGDFGVWGQGTQVTVSS
notes: as for B1
B4: mIL2Rg_VHH3 (VHH)
VHH: QVQLQESGGGSVQAGASLRLSCSVSGFTFDESVMSWLRQGPGNECDAVAIISSDDNTYYDDSVKGRFTISEDNAKNMVYLQMNSLKPEDTAVYYCAARRRRPVYDSDYELRPRPLCGDFGVWGQGTQVTVSS
notes: as for B1
B5: mIL2Rg_VHH12 (VHH)
VHH: QVQLQESGGGSVLAGGSLRLSCVASGYGYNYIGWFRQTPGKEREGVAVIYIGGGDTYYADSVKGRFTASRDNAKSTLYLQMNSLEPEDTAMYYCVARYCVGSVYACLRGGHDEYAHWGQGTQVTVSS
notes: as for B1
B6: mIL2Rg_VHH13 (VHH)
VHH: B5 VHH with I51T
notes: as for B1
B7: mIL2Rg_VHH9 (VHH)
VHH: QVQLQESGGGSVQAGGSLRLSCAASGFTFDDFDMGWYRQAPGNECELVSTISDDGSTYYADSVKGRSSISRDNAKNTVYLQMNSLKPEDTAVYYCAAEGALGSKTNCGWVGNFGYWGQGTQVTVSS
notes: as for B1
B8: mIL2Rg_VHH15 (VHH)
VHH: B7 VHH with A23T, S84R, A91G, T105M
notes: as for B1
B9: mIL2Rg_VHH10 (VHH)
VHH: B7 VHH with S11L, A14P, N76S, S84R, A91G
notes: as for B1
B10: mIL2Rg_VHH8 (VHH)
VHH: B7 VHH with A23T, S84R, A91G
notes: as for B1
B11: mIL2Rg_VHH14 (VHH)
VHH: B7 VHH with D61N, T77M
notes: as for B1
B12: mIL2Rg_VHH11 (VHH)
VHH: B7 VHH with S11L, A14P, R19K, D30S, F32R, L47R
notes: as for B1
B13: mIL2Rg_VHH2 (VHH)
VHH: QVQLQESGGGSVQPGGSLRLSCAASGSTYANYLMGWFRQAPGKEREGVAAIYSGGGSTYYADSVKGRFTISQDNAKNTLYLQMNSLKPEDTAMYYCAAASAVKGDKGDIVVVVTGTQRMEYDYWGHGTQVTVSS
notes: as for B1
B14: mIL2Rg_VHH4 (VHH)
VHH: QVQLQESGGGSVQAGGSLRLSCIGSGLPFDEDDMGWYRQAPGNECELVSSISSDGTAYYADSVKGRFTISRDNAKNTVLLQMNSLKPEDTAVYYCAAGVHRQFGGSSSCGDAFYGMDYWGKGTQVTVSS
notes: as for B1
B15: hIL2Rb_VHH5 Mono-Fc VHH (Fc fusion, not shown: a dimerising Fc or GST)
chain: QVQLQESGGGSVQVGGSLRLSCATSGDTKSIRCMGWFRQTPGKEREGIAAIDREGFATYADSVYDRFTIAQDNAQNTLYLEMNALKPEDTAMYYCAAQNMCRVVRGAMTGVDYWGKGTQVTVSS
B16: hIL2Rb_VHH4 Mono-Fc VHH (Fc fusion, not shown: a dimerising Fc or GST)
chain: QVQLQESGGGSVQTGGSLRLSCAVSGYTTYSFNYMGWFRQAPGKEREGVAVIYTGGGSTLYADSVKGRFTISQDNAKNTVYLQMNSLKPEDTAMYYCAADDQRFASPLYAYFGYWGQGTQVTVSS
B17: hIL2Rb_VHH2 Mono-Fc VHH (Fc fusion, not shown: a dimerising Fc or GST)
chain: QVQLQESGGGLVQPGGSLRLSCVASGFTFSNYWIFWVRQAAGKGLEWLSTSNTGGDTTKYADSVKGRFTISRDSAKNTEYLQMNSLKPEDTAVYYCETGRCARSGGYQGTQVTVSS
B18: hIL2Rb_VHH7 Mono-Fc VHH (Fc fusion, not shown: a dimerising Fc or GST)
chain: QVQLQESGGGSVQAGGSLRLSCAASGYEYCRIHMTWYRQGPGKEREFVSSIGSDGRKTYANSVTGRFTISRDNANHTVYLQMNSLSPEDTAMYYCKTEYLYGLGCPDGSAYWGQGTQVTVSS
B19: hIL2Rb_VHH1 Mono-Fc VHH (Fc fusion, not shown: a dimerising Fc or GST)
chain: QVQLQESGGGSVQAGGSLRLSCVGSGYTYDTSDMSWYRQAPGKEREFVSDIDSGDWAAYADAVKGRFTISRDNAKKTVYLQMNSLEPEDTAMYYCKASYWKWGKLNNFWGPGTQVTVSS
B20: hIL2Rb_VHH8 Mono-Fc VHH (Fc fusion, not shown: a dimerising Fc or GST)
chain: QVQLQESGGGSVQVGGSLKLSCAASGYTYSSYYCMGWFRQAPGKEREGVAAIDSDGSTSYADSVKGRFTISQDDAKNTLYLQMNSLKPEDTAMYYCAASYEVVDCYPSGYGQDYWGKGTQVTVSS
B21: hIL2Rb_VHH6 Mono-Fc VHH (Fc fusion, not shown: a dimerising Fc or GST)
chain: QVQLQESGGGSVQAGGSLRLSCAASEYTASRYCMAWFRQAPGKEREGVAAIHPGGGTTYYADSVKGRFSISQDSADNTLYLQMNSLKPEDTAMYYCAAGSLWVPFGDRCAANYWGQGTQVTVSS
B22: hIL2Rb_VHH3 Mono-Fc VHH (Fc fusion, not shown: a dimerising Fc or GST)
chain: QVQLQESGGGLVQPGGSLKLSCAASGFRFSNYGMSWVRQAPGEGLEWVSYINGDGSRTHYADSVKGRFTISRDNAKNTLYLQLNSLKTEDTAMYYCEKGLSRDGWSLSAASRGQGTQVTVSS

biological target: T1, mIL2Rg ECD antigen; test: PE-ELISA of phage clones

Binder	binding result
B1	binds
B2	binds
B3	binds
B4	binds
B5	binds
B6	binds
B7	binds
B8	binds
B9	binds
B10	binds
B11	binds
B12	binds
B13	binds
B14	binds

biological target: T2, hIL2Rb-his; test: SPR; ratio of experimental to calculated Rmax
Method: (§1) A representative example from each hIL2Rb VHH clonotype generated as descried above was selected for evaluation of binding via SPR as follows. Evaluation of binding affinity of the hIL2Rb binding molecules shown in Table 16 was conducted using surface plasmon resonance (SPR) in substantial accordance with the following procedure. All experiments were conducted in 10 mM Hepes, 150 mM NaCl, 0.05% (v/v) Polysorbate 20 (PS20) and 3 mM EDTA (HBS-EP+ buffer) on a Biacore T200 instrument equipped with a Protein A derivatized sensor chip (Cytiva). Mono-Fc VHH ligands were flowed at 5 μl/min for variable time ranging from 18 to 300 seconds, reaching the capture loads listed in the tables below. Following ligand capture, injections of a 2-fold dilution series of the extracellular domain of the IL2Rb-receptor modified to incorporate a C-terminal poly-His sequence, typically comprising at least five concentrations between 1 μM and 1 nM, were performed in either high performance or single cycle kinetics mode. Surface regeneration was achieved by flowing 10 mM glycine-HCl, pH 1.5 (60 seconds, […]). Buffer-subtracted sensograms were processed with Biacore T200 Evaluation Software and globally fit with a 1:1 Langmuir binding model (bulk shift set to zero) to extract kinetics and affinity constants (kₐ, kd, KD). RMAX<100 RU indicates surface density compatible with kinetics analysis. Calculated Rₘₐₓ values were generated using the equation: Rmax=Load (RU)×valency of ligand×(Molecular weight of analyte/Molecular weight of ligand). Surface activity was defined as the ratio of experimental/calculated Rmax.

Binder	Surface Activity [%]
B15	42
B16	96
B17	26
B18	43
B19	37
B20	< 5
B21	53
B22	52

biological target: T2, hIL2Rb-his; test: SPR Biacore T200; Mono-Fc VHH captured on Protein A chip, hIL2Rb-his analyte; 1:1 Langmuir fit
Method: as §1

Binder	Kd [nM]	koff [s⁻¹]	kon [M⁻¹ s⁻¹]
B15	0.4	0.00154	3.82e+06
B16	3.4	0.00205	600000
B17	16	0.00224	139000
B18	1.1	0.00317	2.86e+06
B19	1	0.0199	1.98e+07
B21	1.2	0.0229	1.9e+07
B22	47	0.00699	157000
